{
  "source": "paper PMC11163200",
  "about": "“C3d-Targeted factor H inhibits tissue complement in disease models and reduces glomerular injury without affecting circulating complement” (Molecular Therapy, 2024)",
  "binders": {"B1": {"name": "TT30 (other)", "chain": "ISCGSPPPILNGRISYYSTPIAVGTVIRYSCSGTFRLIGEKSLLCITKDKVDGTWDKPAPKCEYFNKYSSCPEPIVPGGYKIRGSTPYRHGDSVTFACKTNFSMNGNKSVWCQANNMWGPTRLPTCVSVFPLECPALPMIHNGHHTSENVGSIAPGLSVTYSCESGYLLVGEKIINCLSSGKWSAVPPTCEEARCKSLGRFPNGKVKEPPILRVGVTANFFCDEGYRLQGPPSSRCVIAGQGVAWTKMPVCEEEDCNELPPRRNTEILTGSWSDQTYPEGTQAIYKCRPGYRSLGNVIMVCRKGEWVALNPLRKCQKRPCGHPGDTPFGTFTLTGGNVFEYGVKAVYTCNEGYQLLGEINYRECDTDGWTNDIPICEVVKCLPVTAPENGKIVSSAMEPDREYHFGQAVRFVCNSGYKIEGDEEMHCSDDGFWSKEKPKCVEISCKSPDVINGSPISQKIIYKENERFQYKCNMGYEYSERGDAVCTESGWRPLPSCEEKSCDNPYIPNGDYSPLRIKHRTGDEITYQCRNGFYPATRGNTAKCTSTGWIPAPRCTL", "modifications": "Limits are not printed. TT30 is taken as CR2 SCR1-4 (the C3d-binding end) fused directly to factor H SCR1-5, from general knowledge of TT30, with limits from the UniProt Sushi domain features. …"}},
  "conditions_in_all_cases": "both partners purified",
  "key": {"recombinant C3d [1]": {"target": "T1, recombinant C3d ( (human, cynomolgus monkey or …, UniProt P01024 1002-1303))", "T1 construct": "C3d fragment of complement C3, recombinant, amine-coupled to the CM5 chip; source: recombinant", "T1 sequence (P01024 1002-1303)": "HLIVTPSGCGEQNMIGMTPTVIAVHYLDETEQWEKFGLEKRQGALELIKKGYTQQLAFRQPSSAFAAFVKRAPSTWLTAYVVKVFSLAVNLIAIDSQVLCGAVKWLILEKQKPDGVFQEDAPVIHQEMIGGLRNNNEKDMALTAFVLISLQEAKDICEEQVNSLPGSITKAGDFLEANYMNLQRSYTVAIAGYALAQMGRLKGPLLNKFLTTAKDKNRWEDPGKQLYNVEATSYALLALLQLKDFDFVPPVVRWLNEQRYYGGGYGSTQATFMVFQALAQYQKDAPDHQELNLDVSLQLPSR", "test": "SPR; Biacore 3000 or T200, 25°C; recombinant C3d amine-coupled on a CM5 chip at high density (4,200 RU); CR2-fH1–5 injected at 0–1,000 nM, 30 μL/min; Langmuir 1:1 fit"}, "recombinant C3d [2]": {"target": "T1, recombinant C3d", "test": "SPR; Biacore 3000 or T200, 25°C; recombinant C3d amine-coupled on a CM5 chip at medium density (750 RU); CR2-fH1–5 injected at 0–1,000 nM, 30 μL/min; Langmuir 1:1 fit"}, "recombinant C3d [3]": {"target": "T1, recombinant C3d", "test": "SPR; Biacore 3000 or T200, 25°C; recombinant C3d amine-coupled on a CM5 chip at medium-high density (2,500 RU); CR2-fH1–5 injected at 0–1,000 nM, 30 μL/min; Langmuir 1:1 fit"}, "recombinant C3d [4]": {"target": "T1, recombinant C3d", "test": "SPR; Biacore 3000 or T200, 25°C; recombinant C3d amine-coupled on a CM5 chip at low density (10 RU); CR2-fH1–5 injected at 0–1,000 nM, 30 μL/min, 120 s association, 180 s dissociation; Langmuir 1:1 fit"}},
  "data": [
    {"binder": "B1", "values": [
      {"measurement": "Kd", "setting": "recombinant C3d [1]", "result": 1890, "unit": "nM"},
      {"measurement": "Kd", "setting": "recombinant C3d [2]", "result": 1260, "unit": "nM"},
      {"measurement": "Kd", "setting": "recombinant C3d [3]", "result": 1890, "unit": "nM"},
      {"measurement": "Kd", "setting": "recombinant C3d [4]", "result": 1080, "unit": "nM"}
    ]}
  ]
}
